Test results as given in the Human Domainome abundance scans (Beltran et al. 2025).
± gives the uncertainty stated by the source.

B1: Neutrophil cytosol factor 2, residues 456 to 514; numbered along this chain, P19878 (parent)
chain: LKKGSQVEALFSYEATQPEDLEFQEGDIILVLSKVNEEWLEGECKGKVGIFPKVFVEDC

Variants of: B1
Test: abundance fitness (aPCA) (normalised: wild type 0, dead -1); higher = more abundant; growth selection in yeast, the domain comes from the species named
Details: Homo sapiens

Variant	abundance fitness
LKKGSQVEALFSYEATQPEDLEFQEGDIILRLSKVNEEWLEGECKGKVGIFPKVFVEDC	-0.581 ± 0.16
LKKGSQVEALFSYEATQPEDLEFQEGDIILNLSKVNEEWLEGECKGKVGIFPKVFVEDC	-0.092 ± 0.092
LKKGSQVEALFSYEATQPEDLEFQEGDIILYLSKVNEEWLEGECKGKVGIFPKVFVEDC	-0.479 ± 0.13
LKKGSQVEALFSYEATQPEDLEFQEGDIILWLSKVNEEWLEGECKGKVGIFPKVFVEDC	-0.6 ± 0.45
LKKGSQVEALFSYEATQPEDLEFQEGDIILTLSKVNEEWLEGECKGKVGIFPKVFVEDC	-0.482 ± 0.19
LKKGSQVEALFSYEATQPEDLEFQEGDIILPLSKVNEEWLEGECKGKVGIFPKVFVEDC	-0.046 ± 0.14
LKKGSQVEALFSYEATQPEDLEFQEGDIILVLSDVNEEWLEGECKGKVGIFPKVFVEDC	-0.026 ± 0.11
LKKGSQVEALFSYEATQPEDLEFQEGDIILVLSEVNEEWLEGECKGKVGIFPKVFVEDC	0.466 ± 0.14
LKKGSQVEALFSYEATQPEDLEFQEGDIILVLSCVNEEWLEGECKGKVGIFPKVFVEDC	-0.242 ± 0.12
LKKGSQVEALFSYEATQPEDLEFQEGDIILVLSFVNEEWLEGECKGKVGIFPKVFVEDC	-0.459 ± 0.13
LKKGSQVEALFSYEATQPEDLEFQEGDIILVLSAVNEEWLEGECKGKVGIFPKVFVEDC	-0.359 ± 0.13
LKKGSQVEALFSYEATQPEDLEFQEGDIILVLHKVNEEWLEGECKGKVGIFPKVFVEDC	-0.596 ± 0.18
LKKGSQVEALFSYEATQPEDLEFQEGDIILVLDKVNEEWLEGECKGKVGIFPKVFVEDC	0.4 ± 0.072
LKKGSQVEALFSYEATQPEDLEFQEGDIILVLQKVNEEWLEGECKGKVGIFPKVFVEDC	-0.111 ± 0.27
LKKGSQVEALFSYEATQPEDLEFQEGDIILVLEKVNEEWLEGECKGKVGIFPKVFVEDC	-0.786 ± 0.28
LKKGSQVEALFSYEATQPEDLEFQEGDIILVLVKVNEEWLEGECKGKVGIFPKVFVEDC	-0.091 ± 0.081
LKKGSQVEALFSYEATQPEDLEFQEGDIILVLPKVNEEWLEGECKGKVGIFPKVFVEDC	-0.554 ± 0.2
LKKGSQVEALFSYEATQPEDLEFQEGDIILVLWKVNEEWLEGECKGKVGIFPKVFVEDC	-0.366 ± 0.2
LKKGSQVEALFSYEATQPEDLEFQEGDIILVLRKVNEEWLEGECKGKVGIFPKVFVEDC	0.59 ± 0.077
LKKGSQVEALFSYEATQPEDLEFQEGDIILVLCKVNEEWLEGECKGKVGIFPKVFVEDC	-0.474 ± 0.13
LKKGSQVEALFSYEATQPEDLEFQEGDIILVLFKVNEEWLEGECKGKVGIFPKVFVEDC	-0.291 ± 0.13
LKKGSQVEALFSYEATQPEDLEFQEGDIILVLMKVNEEWLEGECKGKVGIFPKVFVEDC	-0.677 ± 0.41
LKKGSQVEALFSYEATQPEDLEFQEGDIILVLYKVNEEWLEGECKGKVGIFPKVFVEDC	-0.55 ± 0.15

Variant	abundance fitness
LKKGSQVEALFSYEATQPEDLEFQEGDIILVLGKVNEEWLEGECKGKVGIFPKVFVEDC	0.378 ± 0.069
LKKGSQVEALFSYEATQPEDLEFQEGDIILVLKKVNEEWLEGECKGKVGIFPKVFVEDC	0.213 ± 0.17
LKKGSQVEALFSYEATQPEDLEFQEGDIILVLNKVNEEWLEGECKGKVGIFPKVFVEDC	0.147 ± 0.089
LKKGSQVEALFSYEATQPEDLEFQEGDIILVLTKVNEEWLEGECKGKVGIFPKVFVEDC	-0.289 ± 0.18
LKKGSQVEALFSYEATQPEDLEFQEGDIILVLIKVNEEWLEGECKGKVGIFPKVFVEDC	-0.34 ± 0.15
LKKGSQVEALFSYEATQPEDLEFQEGDIILVNSKVNEEWLEGECKGKVGIFPKVFVEDC	0.304 ± 0.095
LKKGSQVEALFSYEATQPEDLEFQEGDIILVMSKVNEEWLEGECKGKVGIFPKVFVEDC	-0.532 ± 0.49
LKKGSQVEALFSYEATQPEDLEFQEGDIILVFSKVNEEWLEGECKGKVGIFPKVFVEDC	-0.118 ± 0.12
LKKGSQVEALFSYEATQPEDLEFQEGDIILVISKVNEEWLEGECKGKVGIFPKVFVEDC	-0.06 ± 0.11
LKKGSQVEALFSYEATQPEDLEFQEGDIILVTSKVNEEWLEGECKGKVGIFPKVFVEDC	0.325 ± 0.088
LKKGSQVEALFSYEATQPEDLEFQEGDIILVESKVNEEWLEGECKGKVGIFPKVFVEDC	-0.299 ± 0.19
LKKGSQVEALFSYEATQPEDLEFQEGDIILVRSKVNEEWLEGECKGKVGIFPKVFVEDC	0.564 ± 0.079
LKKGSQVEALFSYEATQPEDLEFQEGDIILVPSKVNEEWLEGECKGKVGIFPKVFVEDC	-0.146 ± 0.15
LKKGSQVEALFSYEATQPEDLEFQEGDIILVSSKVNEEWLEGECKGKVGIFPKVFVEDC	-0.069 ± 0.079
LKKGSQVEALFSYEATQPEDLEFQEGDIILVQSKVNEEWLEGECKGKVGIFPKVFVEDC	-0.143 ± 0.34
LKKGSQVEALFSYEATQPEDLEFQEGDIILVDSKVNEEWLEGECKGKVGIFPKVFVEDC	-0.054 ± 0.095
LKKGSQVEALFSYEATQPEDLEFQEGDIILVCSKVNEEWLEGECKGKVGIFPKVFVEDC	-0.428 ± 0.13
LKKGSQVEALFSYEATQPEDLEFQEGDIILVASKVNEEWLEGECKGKVGIFPKVFVEDC	-0.297 ± 0.14
LKKGSQVEALFSYEATQPEDLEFQEGDIILVHSKVNEEWLEGECKGKVGIFPKVFVEDC	0.166 ± 0.1
LKKGSQVEALFSYEATQPEDLEFQEGDIILVYSKVNEEWLEGECKGKVGIFPKVFVEDC	-0.249 ± 0.13
LKKGSQVEALFSYEATQPEDLEFQEGDIILVVSKVNEEWLEGECKGKVGIFPKVFVEDC	-0.297 ± 0.1
LKKGSQVEALFSYEATQPEDLEFQEGDIILVKSKVNEEWLEGECKGKVGIFPKVFVEDC	0.194 ± 0.15
